Consider five substances from patent US20150065376A1, “EXPRESSION CONSTRUCTS ENCODING G PROTEIN COUPLED RECEPTORS AND METHODS OF USE THEREOF” (priority 2013, published 2015).

pKd: −log10 of the molar value. A value given as a limit tells only on which side of the number the result lay.

The target in data set [1] is Cxcr7a (zebrafish CXCR7 ortholog) (zebrafish). The experiment in a line: cell-based or functional assay.
The target of data set [2] is Cxcr7b (zebrafish CXCR7 ortholog) (zebrafish). Nature of the data set: cell-based or functional assay.
For the next data set, the system named is sdf1a. Nature of the data set: linearity of the Sdf1-signaling sensor, sdf1a morpholino injection. The class given is in vivo, zebrafish. To be noted: increasing amounts of morpholino injected, embryos imaged at 36 hpf, FIG. 3C. An excerpt: Using ImageJ (NIH), a mask was applied to the GFP channel with a threshold to selectively mark the cell membranes of the cells that comprise the primordium. All values in the GFP and Kate2 channels outside of the mask were discarded and the photon counts from the Kate2 channel were divided by the photon counts from the GFP channel for each voxel to yield a Z-stack in which each value-containing voxel represents the ratio of Kate2 fluorescence to GFP fluorescence on the cell membrane. A custom ImageJ (NIH) macro language script was written in order to automate this analysis. The data was then averaged across the dorsal-ventral axis and placed in 1-micron bins in order to yield 100 data points for still images or 80 data points for time-lapse images that correspond to the first 100 μm or the first 80 μm, respectively, from the front tip of the primordium. […]
Tg(cxcr4b:cxcr4b-kate2-IRES-memGFP) embryos were injected alternately with 0, 0.5, 1.0 and 1.5 nl of 0.025 mM or 0.1 mM sdf1a morpholino solution (Doitsidou et al., 2002). […] Image collection and gradient quantification were performed as described above. The shift of the Sdf1-signaling gradient was determined by fitting the average ratios to a second order polynomial using the least squares regression in ImageJ (NIH) and extracting the y-intercept. […]

Another data set deals with Cxcr4b. To be noted: value used for graph of free Cxcr4b versus free Sdf1, FIG. S3B; read-out: dissociation constant; cited from earlier work.
The next data set has as its target T1, human CXCR4 (Homo sapiens, UniProt P61073).
T1 construct: Kate2 (TagRFP2, RFP variant); host or cells: Flp-In T-REx 293 (HEK 293), tetracycline-inducible, cell line number 4
The experiment in a line: human Sdf1-signaling sensor in Flp-In T-REx 293 cell line (CXCR4-Kate2 internalization). The class given is cell-based. The note with it: Flp-In T-REx 293 cells, tetracycline-induced sensor, within 40 minutes, not in vehicle treated controls. An excerpt: In order to test whether the human version of the Sdf1-signaling sensor responds to human SDF1 in a similar fashion to that of the fish version of the Sdf1-signaling sensor, the present inventors generated a Flp-In™ T-REx™ 293 cell line that expresses human CXCR4 fused to the RFP variant Kate2 followed by an IRES and a membrane-tethered GFP from a tetracycline-inducible promoter. Because the flippin technology allows one to generate a single copy transgene in a specific genomic location of HEK 293 cells, expression levels from the human Sdf1-signaling sensor are fairly uniform (FIGS. S4A and C).
Human CXCR4-Kate2-IRES-GFP-CaaX was inserted into the FRT sites in the genome of the Flp-In™ T-REx™ cell line using hygromycin selection (Invitrogen). Five different cell lines were established and cell line number 4 was used to characterize the activity of recombinant human SDF1 on the human Sdf1-signaling sensor. Expression of the human Sdf1-signaling sensor was induced using tetracycline and cells were imaged 24 hours after induction of expression using a Leica SP5 II confocal microscope.

In data set [3] the target is Cxcr4b-Kate2 fusion protein (zebrafish Sdf1-signaling sensor) (zebrafish). The experiment in a line: cell-based or functional assay.

T1 sequence (P61073 whole entry): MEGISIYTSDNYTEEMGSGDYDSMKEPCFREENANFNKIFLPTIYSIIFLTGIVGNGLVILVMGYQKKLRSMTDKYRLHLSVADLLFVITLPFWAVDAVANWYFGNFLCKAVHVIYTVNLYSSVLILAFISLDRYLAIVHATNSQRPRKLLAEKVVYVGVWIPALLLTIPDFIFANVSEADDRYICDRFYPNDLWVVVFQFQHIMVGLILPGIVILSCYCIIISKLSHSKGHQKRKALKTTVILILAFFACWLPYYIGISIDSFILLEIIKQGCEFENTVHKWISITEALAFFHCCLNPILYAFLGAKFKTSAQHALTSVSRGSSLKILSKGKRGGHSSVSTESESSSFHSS

“Sdf1a-GFP (Sdf1a fused to green fluorescent protein) (ligand)” displayed a fraction of total Sdf1a-GFP sequestered in the rear of the primordium in data set [1] of 1%. Moreover, in data set [2], the fraction of total Sdf1a-GFP sequestered in the rear of the primordium was 1% and the reduction of Sdf1a-GFP protein levels on the stripe outside the primordium upon Cxcr7b over-expression turned out to be 29%.
For “sdf1a morpholino: translation-blocking morpholino against sdf1a, SEQ ID NO: 69 (Doitsidou et al., 2002) (ATCACTTTGAGATCCATGTTTGCA; all phosphorodiamidate morpholino (PMO))”, the “shift of FmemRed/FmemGreen ratios across the primordium” value in the data set with sdf1a is given as “progressively shifts the FmemRed/FmemGreen ratios across the primordium to higher values”.
Regarding “Sdf1: chemokine Sdf1, free ligand binding reversibly to Cxcr4b”, the pKd at Cxcr4b was 8.40.
On to “recombinant human SDF1: recombinant human chemokine SDF1, ligand of CXCR4”, for which the figures for the “internalization of CXCR4-Kate2 / activation of the human Sdf1-signaling sensor” value with human CXCR4 and with human CXCR4 (listed as Recombinant human SDF1) were “induces internalization of CXCR4-Kate2” and “activates the human version of the Sdf1-signaling sensor”, respectively.
Turning to “Sdf1a protein (zebrafish chemokine Sdf1a) (ligand)”, in data set [1], the reduction in the local concentration of signaling competent Sdf1a in the rear of the primordium came to 86% and the reduction in the steepness of the Sdf1-signaling gradient across the primordium in the absence of cxcr7a activity was 31%. In addition, in data set [3], the average FmemRed/FmemGreen ratio of the Sdf1-signaling sensor in the absence of Sdf1a protein was found to be 2.6; the average FmemRed/FmemGreen ratio of the Sdf1-signaling sensor upon global Sdf1a over-expression stood at 0.2; the mean FmemRed/FmemGreen at the leading edge of wild-type primordia, 36 hpf was < 0.6; the mean FmemRed/FmemGreen in the rear of wild-type primordia, 36 hpf amounted to 2.3. Moreover, in data set [2], the reduction in the local concentration of signaling competent Sdf1a in the rear of the primordium was determined as 86% and the reduction in the steepness of the Sdf1-signaling gradient across the primordium in the absence of cxcr7b activity was 40%.
